In patent publication US20100129800A1, “POLYMERS AND THEIR USE AS FLUORESCENT LABELS” (priority 2007, published 2010):
Ends that are not written are not given here. Nct = N-((2S,3R)-1,3-dihydroxybutan-2-yl)-(4a,10a-dihydro-10,11-diazabenzo[b]fluoren-10-yl)acetamide monomer; Qut = N-(1,3-dihydroxybutan-2-yl)-10H-indolo[3,2-d]quinoline-11-carboxamide monomer; Pht = N-((2S,3R)-1,3-dihydroxybutan-2-yl)-2-phenylquinoline-4-carboxamide monomer; Act = N-(1,3-dihydroxybutan-2-yl)acridine-9-carboxamide monomer; code p = not defined here; Agt = not defined here; Qgt = not defined here

Key:
Format in all cases: physicochemical
[1] = system: duplex structure of DNA; experiment: Melting experiments (DNA-duplex stabilization); conditions: 1 M NaCl, 10 mM sodium phosphate buffer of pH=7; for Tm(° C.): 260 nm, 1° C./min; for ΔTm (° C.): versus unmodified oligonucleotide
Protocol: Appropriate oligonucleotides were dissolved in a solution containing 1 M NaCl, 10 mM sodium phosphate buffer of pH=7. UV Absorption spectra and melting experiments (absorbance vs temperature) were recorded in 1-cm path length cell by using a spectrophotometer, with a temperature controller and a programmed temperature increase rate of 1° C./min. Melting curves were recorded at 260 nm, and melting temperatures were measured at the maximum of the first derivatives of the melting curves.

[2] = Fluorescent properties of duplexes carrying fluorophores at the 3′-end; conditions: oligonucleotide duplex carrying fluorophore at the 3′-end
Protocol: Solid supports carrying oligomers with L-threoninol and 3-aminopropan-1,2-diol backbones were introduced on a DNA synthesizer and oligonucleotides were assembled using standard protocols. After the assembly of the desired DNA sequence, supports were treated with concentrated ammonia at 55° C. for a minimum of 6 hrs yielding oligonucleotides carrying oligomers of fluorophores at the 3′-end.
Two oligonucleotide sequences were synthetized (sequence 1: 5′-[…]-3′ sequence 2: 5′-[…]-3′) carrying different fluorophores at the 3′-end. Solid supports containing dimer and trimer fluorophores (prepared in examples 28-31) and standard protocols for oligonucleotide synthesis were used in order to obtain these modified oligonucleotides (Table 2). Ammonia deprotection was performed at 55° C. for 6 hours. The resulting solutions were concentrated to dryness. Then, the residue was dissolved in water and desalted through a NAP-10 column. Fractions containing oligonucleotides were analysed by HPLC and characterized by UV and MS spectrometry.
Next, the fluorescent properties of duplexes carrying fluorophores at the 3′-end was determined and the results are shown in Table 3: […]

[3] = Fluorescence properties of the new compounds (excitation and emission wavelengths); conditions: free compound

Molecule | Tm(° C.) [1] | ΔTm (° C.) [1] | Emission (nm) [2] | Excitation (nm) [2] | Fluorescence Excitation (nm) [3] | Fluorescence emission (nm) [3]
TTCCGGAA-p-Act-p-Qut-p-Qut: oligonucleotide 5′-TTCCGGAA-3′ carrying trimer Act-p-Qut-p-Qut at the 3′-end (DNA TTCCGGAA-{code p-Act-code p-Qut-code p-Qut}; not fully specified; cysteine pairing not given here; reading uncertain; also: DNA oligonucleotide with 3'-Act-p-Qut-p-Qut trimer) | 44 °C | +9 °C | 436 nm | 352 nm |  | 
TTCCGGAA-p-Qut-p-Qut: oligonucleotide 5′-TTCCGGAA-3′ carrying dimer Qut-p-Qut at the 3′-end (DNA TTCCGGAA-{code p-Qut-code p-Qut}; not fully specified; cysteine pairing not given here; reading uncertain; also: DNA oligonucleotide with 3'-Qut-p-Qut dimer) | 48 °C | +13 °C | 490 nm | 349 nm |  | 
TTCCGGAA-p-Agt: oligonucleotide 5′-TTCCGGAA-3′ carrying fluorophore Agt at the 3′-end (DNA TTCCGGAA-{code p-Agt}; not fully specified; cysteine pairing not given here; reading uncertain; also: DNA oligonucleotide with 3'-phosphate-linked Agt) | 47 °C | +12 °C |  |  |  | 
TTCCGGAA-p-Pht: oligonucleotide 5′-TTCCGGAA-3′ carrying fluorophore Pht at the 3′-end (DNA TTCCGGAA-{code p-Pht}; not fully specified; cysteine pairing not given here; reading uncertain; also: DNA oligonucleotide with 3'-phosphate-linked Pht) | 41 °C | +6 °C |  |  |  | 
TTCCGGAA-p-Act-p-Qut-p-Nct: oligonucleotide 5′-TTCCGGAA-3′ carrying trimer Act-p-Qut-p-Nct at the 3′-end (DNA TTCCGGAA-{code p-Act-code p-Qut-code p-Nct}; not fully specified; cysteine pairing not given here; reading uncertain; also: DNA oligonucleotide with 3'-Act-p-Qut-p-Nct trimer) | 60 °C | +25 °C |  |  |  | 
TTCCGGAA-p-Nct: oligonucleotide 5′-TTCCGGAA-3′ carrying fluorophore Nct at the 3′-end (DNA TTCCGGAA-{code p-Nct}; not fully specified; cysteine pairing not given here; reading uncertain; also: DNA oligonucleotide with 3'-phosphate-linked Nct) | 46 °C | +11 °C | 442 nm | 267 nm |  | 
TTCCGGAA-p-Qut: oligonucleotide 5′-TTCCGGAA-3′ carrying fluorophore Qut at the 3′-end (DNA TTCCGGAA-{code p-Qut}; not fully specified; cysteine pairing not given here; reading uncertain; also: DNA oligonucleotide with 3'-phosphate-linked Qut) | 44 °C | +9 °C | 492 nm | 349 nm |  | 
TTCCGGAA-p-Act: oligonucleotide 5′-TTCCGGAA-3′ carrying fluorophore Act at the 3′-end (DNA TTCCGGAA-{code p-Act}; not fully specified; cysteine pairing not given here; reading uncertain; also: DNA oligonucleotide with 3'-phosphate-linked Act) | 47 °C | +12 °C |  |  |  | 
TTCCGGAA-p-Act-p-Pht: oligonucleotide 5′-TTCCGGAA-3′ carrying dimer Act-p-Pht at the 3′-end (DNA TTCCGGAA-{code p-Act-code p-Pht}; not fully specified; cysteine pairing not given here; reading uncertain; also: DNA oligonucleotide with 3'-Act-p-Pht dimer) | 43 °C | +8 °C | 440 nm | 336 nm |  | 
TTCCGGAA-p-Qgt: oligonucleotide 5′-TTCCGGAA-3′ carrying fluorophore Qgt at the 3′-end (DNA TTCCGGAA-{code p-Qgt}; not fully specified; cysteine pairing not given here; reading uncertain; also: DNA oligonucleotide with 3'-phosphate-linked Qgt) | 50 °C | +15 °C | 491 nm | 350 nm |  | 
TTCCGGAA-p-Act-p-Qut: oligonucleotide 5′-TTCCGGAA-3′ carrying dimer Act-p-Qut at the 3′-end (DNA TTCCGGAA-{code p-Act-code p-Qut}; not fully specified; cysteine pairing not given here; reading uncertain; also: DNA oligonucleotide with 3'-Act-p-Qut dimer) | 44 °C | +9 °C | 485 nm | 351 nm |  | 
CC(O)C(COP(=O)(O)OC(C)C(CO)NC(=O)c1cc(-c2ccccc2)nc2ccccc12)NC(=O)c1cc(-c2ccccc2)nc2ccccc12 (centres unmarked) [Example 35, O-{2-N-(2-phenylquinoline-4-carbamoyl-1-hydroxybutan-3-yl)} and O-{2-N-(2-phenylquinoline-4-carbamoyl-3-hydroxybutan-1-yl)} phosphate] |  |  |  |  | 330 nm | 395 nm
